Here are results for seven molecules from paper PMC11662666 (Nucleic Acids Research, 2024).

In general, stoichiometry N refers to a count of units in the complex or per binding partner. A word on the Ki: it is the dissociation constant of the complex between target and ligand, obtained from inhibition or displacement. A lower Ki goes with a stronger hold on the target. In general, Km refers to the concentration of substrate that gives half-maximal velocity. Usually Vmax stands for the rate approached at saturating substrate. What is called kcat is the number of substrate molecules converted per active site and unit of time at saturation. In general, kcat/Km refers to the turnover number divided by the Michaelis constant.

Data set [1] has as its target Giardia intestinalis deoxyadenosine kinase lacking the N- and C-termini (dAK-ΔNΔC, amino acids 30-232) (Giardia intestinalis (assemblage A isolate WB)). The experiment in a line: mass photometry; Refeyn 2MP, protein in PBS; 50 nM by the methods, 65 nM by the results.
For data set [2], the target named is Giardia intestinalis deoxyadenosine kinase lacking the C-terminus (dAK-ΔC, amino acids 1-232) (Giardia intestinalis (assemblage A isolate WB)). The data set is described as above.
The target in data set [3] is T1, deoxyadenosine kinase (dAK) (Giardia duodenalis, UniProt A8B9V6).
T1 sequence (A8B9V6 1-251): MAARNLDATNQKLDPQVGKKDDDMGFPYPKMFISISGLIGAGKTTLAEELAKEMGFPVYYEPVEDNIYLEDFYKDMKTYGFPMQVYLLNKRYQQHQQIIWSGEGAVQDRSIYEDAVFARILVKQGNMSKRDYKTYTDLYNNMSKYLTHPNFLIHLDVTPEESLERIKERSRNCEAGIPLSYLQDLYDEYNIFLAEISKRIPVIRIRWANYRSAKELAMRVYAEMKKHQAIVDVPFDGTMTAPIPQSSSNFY
The experiment in a line: X-ray crystal structure at […] Å (co-purified ligand); HPLC of bound nucleotides; enzyme inhibition. The arrangement: gene GL50803_0017451; full-length dAK (untagged after TEV cleavage). The data set is classed as binding.

Data set [4] deals with Giardia intestinalis deoxyadenosine kinase lacking the N-terminus (dAK-ΔN, amino acids 30-251) (Giardia intestinalis (assemblage A isolate WB)). The experiment in a line: mass photometry; Refeyn 2MP, protein in PBS; 50 nM by the methods, 65 nM by the results.
In data set [5] the target is T1, deoxyadenosine kinase (dAK). Description: enzyme inhibition kinetics with purified dAK; co-purified dATP seen by HPLC. Further details: gene GL50803_0017451; full-length dAK. The data set is classed as biochemical.
The target in data set [6] is Giardia intestinalis deoxyadenosine kinase (Giardia intestinalis (assemblage A isolate WB)). The experiment in a line: SEC; Superdex 200 10/300 GL, 150 mM KCl, 50 mM Tris-HCl pH 7.6, 0.4 ml/min; protein at 0.1 mg/ml (4 μM); mass from a standard curve. On the technique in general: SEC sorts molecules by how far they enter the pores of the column.
Data set [7] has the same target. Description: mass photometry; Refeyn 2MP, protein in PBS; 50 nM by the methods, 65 nM by the results.
Data set [8] shares this target. The experiment in a line: crystal structure + cryo-EM structure.
Substrate in data set [9]: Nc1nc(Cl)nc2c1ncn2[C@H]1C[C@H](O)[C@@H](CO)O1
The experiment in a line: purified protein. The following applies: ATP and Mg2+ (phosphate donor in assay) active site (2-Cl towards F72, modelled).

Substrate in data set [10]: Nc1ncnc2c1ncn2[C@H]1C[C@H](O)[C@@H](CO)O1
Description: purified protein. Conditions: ATP and Mg2+ (phosphate donor in assay) active site.

Substrate in data set [11]: Nc1ncnc2c1ncn2[C@@H]1O[C@H](CO)[C@@H](O)[C@@H]1F
The experiment in a line: steady-state kinetics with purified enzyme, HPLC (KM). The class given is biochemical, Giardia duodenalis. The following applies: ATP and Mg2+ (phosphate donor in assay).

Substrate in data set [12]: Nc1nc(I)nc2c1ncn2[C@H]1C[C@H](O)[C@@H](CO)O1
Described as above. The data set is classed as biochemical, Giardia duodenalis. The following applies: ATP and Mg2+ (phosphate donor in assay).

Substrate in data set [13]: Nc1nc(F)nc2c1ncn2[C@@H]1O[C@H](CO)[C@@H](O)[C@@H]1O
The description is as above. Conditions: ATP and Mg2+ (phosphate donor in assay). The class given is biochemical, Giardia duodenalis.

Substrate in data set [14]: Nc1nc(Cl)nc2c1ncn2[C@@H]1O[C@H](CO)[C@@H](O)[C@@H]1F
Described as above. Conditions: ATP and Mg2+ (phosphate donor in assay). The class given is biochemical, Giardia duodenalis.

Substrate in data set [15]: Nc1ncnc2c1ncn2[C@@H]1O[C@H](CO)[C@@H](O)[C@@H]1O
The data set is described as above. The following applies: ATP and Mg2+ (phosphate donor in assay). The class given is biochemical, Giardia duodenalis.

Values joined by “and” are separate entries in the source; they are usually repeats but may differ in a detail not shown here. Identical values can stand only once.

Turning to “Giardia intestinalis deoxyadenosine kinase lacking the N- and C-termini (dAK-ΔNΔC, amino acids 30-232) (domain or fragment)”, the stoichiometry N in [1] turned out to be 2.

As for “Giardia intestinalis deoxyadenosine kinase lacking the C-terminus (dAK-ΔC, amino acids 1-232) (domain or fragment)”, the stoichiometry N in [2] is 2 and 4.

For `Nc1ncnc2c1ncn2[C@H]1C[C@H](O)[C@@H](COP(=O)(O)O)O1` [dAMP, deoxyadenosine monophosphate], in [3], the “X-ray crystal structure at 2.1 Å (co-purified ligand); HPLC of bound nucleotides” value was “the density for active site II unambiguously allowed for the placement of a dAMP”.

With “Giardia intestinalis deoxyadenosine kinase lacking the N-terminus (dAK-ΔN, amino acids 30-251) (domain or fragment)”, the stoichiometry N in data set [4] is 4 and 2.

In the case of `Nc1ncnc2c1ncn2[C@H]1C[C@H](O)[C@@H](COP(=O)(O)OP(=O)(O)OP(=O)(O)O)O1` [dATP, deoxyadenosine triphosphate], in data set [5], the Ki came out at 840 ± 220 nM.

For “Giardia intestinalis deoxyadenosine kinase (enzyme)”, the stoichiometry N in data set [6], in data set [7] and in data set [8] was 4 throughout.

B1: deoxyadenosine kinase (dAK) (Giardia lamblia ATCC 50803) (protein)
chain: MAARNLDATNQKLDPQVGKKDDDMGFPYPKMFISISGLIGAGKTTLAEELAKEMGFPVYYEPVEDNIYLEDFYKDMKTYGFPMQVYLLNKRYQQHQQIIWSGEGAVQDRSIYEDAVFARILVKQGNMSKRDYKTYTDLYNNMSKYLTHPNFLIHLDVTPEESLERIKERSRNCEAGIPLSYLQDLYDEYNIFLAEISKRIPVIRIRWANYRSAKELAMRVYAEMKKHQAIVDVPFDGTMTAPIPQSSSNFY
notes: full-length dAK
As for B1, the Km in “purified protein [9]” was determined as 0.51 ± 0.08 µM; in “purified protein [10]”, 1.12 ± 0.37 µM; in [11] it was 2.66 ± 0.11 µM; in [12], 4.78 ± 0.17 µM; in data set [13] it was 8.40 ± 0.60 µM; in [14], 6.23 ± 1.33 µM. For the same molecule, in data set [15], the Km is 6.70 ± 0.07 µM. Further, the maximum rate (Vmax) in “purified protein [9]” worked out at 5.78 µmol/min/mg; in “purified protein [10]”, 10.3 µmol/min/mg; in data set [11], 7.64 µmol/min/mg; in data set [12] it was 13.7 µmol/min/mg; in data set [13] it was 7.2 µmol/min/mg; in [14], 7.26 µmol/min/mg. Besides, the maximum rate (Vmax) in [15] stood at 6.6 µmol/min/mg. In addition, the kcat in “purified protein [9]” is 2.79 s⁻¹; in the data set “purified protein [10]”, 4.96 s⁻¹; in data set [11], 3.69 s⁻¹; in data set [12], 6.63 s⁻¹; in [13], 3.48 s⁻¹; in data set [14] it was 3.51 s⁻¹. Also, the kcat in data set [15] came out at 3.19 s⁻¹. The catalytic efficiency (kcat/Km) was 5.48e+06 M⁻¹ s⁻¹ in “purified protein [9]”; 4.43e+06 M⁻¹ s⁻¹ in the data set “purified protein [10]”; 1.39e+06 M⁻¹ s⁻¹ in [11]; 1.39e+06 M⁻¹ s⁻¹ in data set [12]; 414000 M⁻¹ s⁻¹ in [13]; 563000 M⁻¹ s⁻¹ in data set [14]. Also, the specificity constant (kcat/Km) in data set [15] is 476000 M⁻¹ s⁻¹.
